Target: the molecule itself
Test: mass photometry

B1: MERS-CoV main protease (M^pro) (enzyme)
chain: SGLVKMSHPSGDVEACMVQVTCGSMTLNGLWLDNTVWCPRHVMCPADQLSDPNYDALLISMTNHSFSVQKHIGAPANLRVVGHAMQGTLLKLTVDVANPSTPAYTFTTVKPGAAFSVLACYNGRPTGTFTVVMRPNYTIKGSFLCGSCGSVGYTKEGSVINFCYMHQMELANGTHTGSAFDGTMYGAFMDKQVHQVQLTDKYCSVNVVAWLYAAILNGCAWFVKPNRTSVVSFNEWALANQFTEFVGTQSVDMLAVKTGVAIEQLLYAIQQLYTGFQGKQILGSTMLEDEFTPEDVNMQIMGVVMQ
With B1 the “stoichiometry N” value was 2.

From paper PMC11350714 (JACS Au, 2024)
